Literature values as cited in patent US20180134803A1, “TREATMENT OF HER2-POSITIVE BREAST CANCER” (Genentech, Inc., priority 2016, published 2018).

What was measured:
[1] = tested on: incurable, locally advanced, recurrent or metastatic solid tumors
[2] = in vivo

Pertuzumab: antibody comprising the variable light and variable heavy amino acid sequences in SEQ ID NOs: 7 and 8; HER dimerization inhibitor
confirmed partial responses ([1]; Phase I, IV every 3 weeks): Two
tumor regression, patients evaluable for response ([1]; Phase I, IV every 3 weeks): 3 of 20
tolerability ([1]; in vivo, iv): generally well tolerated
mean clearance [2]: 2.69 to 3.74 mL/day/kg
mean terminal elimination half-life [2]: 15.3 to 27.6 days
